In experiment [1] the target is recombinant A. fumigatus Crf1 protein with FLAG-Tag (Aspergillus fumigatus).
For experiment [2], the target named is recombinant A. fumigatus secreted protein peptidase (Aspergillus fumigatus).
Experiment [3] deals with PE-conjugated Crf1 p41-specific HLA-DRB1*0401 MHC class II tetramer (Aspergillus fumigatus; human). The experiment in a line: flow cytometry, tetramer staining of T-cell lines expanded for 14 days.
Another experiment deals with HLA-DRB1*03, 04 and 13. Put plainly: Minimal epitope analysis with 11-mer peptides. The note with it: data not shown. The class given is cell-based, human. The text has this: To evaluate the utility of the Crf1 p41 epitope for potential clinical application, we defined the HLA restriction of Crf1 p41-specific CD4^+ T clones from different donors by stimulation with peptide-pulsed partially matched LCLs. […] As presentation of the Crf1 p41 peptide could also be mediated by other MHC class II alleles, we verified the HLA restriction by stimulation of PBMC from additional donors.
A peptide library covering the complete Crf1 sequence consisting of 94 15-mer peptides overlapping by […] (aa) was divided into sub-pools of 10 peptides and 94 single peptides (p1-p94) (PANATecs). 3 11-mer peptides of p40/41 overlapping by 2aa ([…], […], HTYTIDWTKDA) were obtained from JPT Peptide Technologies.

Experiment [4] relates to T-cell lines from PBMC of healthy donors. The experiment in a line: IFN-γ ELISA of T-cell lines stimulated with recombinant A. fumigatus proteins. The experiment is classed as cell-based, human. The note with it: 5 μg/ml protein. The text has this:
As the identification of potential protective fungal antigens is rather intricate due to the extensiveness of fungal genomes, we analyzed 6 different A. fumigatus recombinant proteins based on their previously reported immunogeneic reactivity in mice and humans^7,10. […] By contrast, GPI-anchored extracellular cell wall glucanase Crf1 and secreted protein peptidase induced high IFN-γ in 6 of 7 and 5 of 10 tested donors, respectively. The response was mediated by CD4^+ TH1 cells, as MHC class II blocking antibody nearly abrogated IFN-γ release (data not shown). Due to the broad response and the sequence similarity to the C. albicans orthologue Crh1, we focused in subsequent experiments on the protein Crf1. By epitope mapping of 7 healthy individuals with different MHC class II alleles, we identified 10 potential candidate epitopes (Table 1). Based on the results obtained by epitope mapping, the probability of antigen presentation by certain MHC class II alleles assessed by epitope prediction^11, previously reported immunogeneic reactivity^12 and sequence similarity to the C. albicans homologue Crh1, we then generated CD4^+ TH1 T-cell clones specific for the peptides p1, p22, p27, p41, p48, p59, p69 and p84 (FIG. 1a and Table 1).
A. fumigatus superoxide dismutase^34, catalase^35, peptidase^36 and 1,3-beta-glucanosyl-transferase Gel1^30 were produced in the yeast Pichia pastoris as described^37. Extracellular cell wall glucanase Crf1^37 (cDNA provided by Utz Reichard) and the major allergen and cytotoxin AspF1^10 were expressed with FLAG-Tags in the human cell line phoenix GALV^38.
For analysis of recombinant proteins and epitope mapping, T-cell lines were generated by incubation of 1×10^7 PBMC per well in 6-well cell culture plates with 5 μg/ml protein or peptide for 7d in the presence of 5 U/ml IL-2 (Proleukin, Chiron). Antigen specificity was analyzed by IFN-γ ELISA^42 after restimulation with autologous monocytes incubated overnight with 5 μg/ml protein in a responder to stimulator (R:S) ratio of 5:1. Epitope mapping was performed by IFN-γ ELISPOT^39 after stimulation with peptide-pulsed autologous DC at a R:S ratio of 10:1.
(In an ELISA, binding on a coated surface is turned into a signal by an enzyme label.)

A further experiment has as its system C. albicans. The experiment in a line: Vaccination of mice before intragastric C. albicans infection. The experiment is classed as in vivo, BALB/c mice. The method, then: A. fumigatus Crf1 protein mediates cross-protection to C. albicans. Mice were injected intranasally with resting A. fumigatus conidia 14 days before infection, or with purified Crf1 protein and murine CpG oligodeoxynucleotide 1862 14, 7 and 3 days before intragastric infection with C. albicans. Note (a) the reduced inflammatory cell recruitment and acanthosis in mice vaccinated with A. fumigatus conidia or Crf1 protein as opposed to control mice shown in FIG. 5a and c and (b) the increase in protective TH1 and regulatory T-cell transcription factors and cytokine levels. Shown are fungal growth (CFU/organ, mean±SE), stomach histology and transcription factor and cytokine mRNA expression in CD4^+ T-cells from mesenteric lymph nodes a week after infection with C. albicans. Shown are results pooled from 2 experiments (6 animals/group). Bars indicate SE. P, vaccinated animals versus control. (c) Proliferation of purified CD4^+ spleen cells from untreated mice or animals vaccinated with A. fumigatus or C. albicans in response to control DC, anti-CD3E antibody, heat-inactivated A. fumigatus or C. albicans or A. fumigatus Crf1 p41 and p22 peptide. The results are expressed as mean cpm±SEM of triplicate cultures. P, stimulated versus control DC.
Mice were infected with 2×10^7 resting A. fumigatus conidia intranasally^7,45 and with 10^8C. albicans intragastrically^13. For co-infection, mice were infected a week before the subsequent infection. In the vaccination model, mice were injected intranasally with 2×10^7 Aspergillus resting conidia/20 μl saline once, 14d before infection, or with 5 μg purified Crf1p antigen^7 and 10 nM murine CpG oligodeoxynucleotide 1862, administered 14 d, 7 d and 3 d before intragastric C. albicans infection^7. Mice were monitored for survival (MST, days) and fungal growth (CFU/organ expressed as mean±SE). Mice dying of fungal challenge routinely underwent necropsy for histopathological confirmation of infection^7. […]

In the case of “T-cell lines from PBMC of healthy donors, raised with the respective recombinant A. fumigatus protein (cells without a defined receptor)”, the IFN-γ (ELISA) (of 7 tested donors) in experiment [1] is 6. For the same molecule, the IFN-γ (ELISA) (of 10 tested donors) in experiment [2] was found to be 5.
Regarding “Crf1 p41-specific CD4^+ T-cell lines expanded for 14 days (cells without a defined receptor)”, in experiment [3], the frequency of antigen-specific cells as determined by tetramer (median) turned out to be 50.6%.
Regarding “HTYTIDWTKDA (peptide of A. fumigatus Crf1)”, the Minimal epitope entry with HLA-DRB1*03, 04 and 13 was “is the minimal epitope of Crf1 p41 for all 3 HLA alleles”.

B1: Crf1: recombinant A. fumigatus GPI-anchored extracellular cell wall glucanase Crf1; given with CpG oligodeoxynucleotide 1862 in mice (protein)
chain: QTWSKCNPLEKTCPPNKGLAASTYTADFTSASALDQWEVTAGKVPVGPQGAEFTVAKQGDAPTIDTDFYFFFGKAEVVMKAAPGTGVVSSIVLESDDLDEVDWEVLGGDTTQVQTNYFGKGDTTTYDRGTYVPVATPQETFHTYTIDWTKDAVTWSIDGAVVRTLTYNDAKGGTRFPQTPMRLRLGSWAGGDPSNPKGTIEWAGGLTDYSAGPYTMYVKSVRIENANPAESYTYSDNSGSWQSIKFDGSVDISSSSSVTSSTTSTASSASSTSSKTPSTSTLATSTKATPTPSGTSSGSNSSSSAEPTTTGGTGSSNTGSGSGSGSGSGSSSSTGSSTSAGASATPELSQG
For B1, the “donors with high IFN-γ of tested donors” value in experiment [4] was 6 of 7. Further, the “Tbet/Foxp3 CD4+ T-cells and cytokines in mesenteric lymph nodes” value in the experiment with C. albicans (a week after infection with C. albicans) was “activation of Tbet^+/Foxp3^+ CD4^+T-cells and their respective cytokines, IFN-γ and IL-10, in mesenteric lymph nodes”. For the same molecule, in the experiment on C. albicans (vaccinated mice), the “Protection against lethal infection” value is recorded as “protected against lethal infection with C. albicans”. Further, the “Fungal burden and inflammatory pathology in the stomach” value with C. albicans (vaccination intranasally before intragastric C. albicans infection, Crf1 protein with CpG as adjuvant) was “both vaccination strategies reduced the fungal burden and inflammatory pathology in the stomach of mice with candidiasis”.
